Test results published in patent US20230357348A1 (AstraZeneca / MedImmune, published 2023).
Starred links: 1 amine or outer side, 2 acyl side, 3 side chain; linkers in the order of their positions; H or OH if unused. Non-standard residues stand in square brackets, D forms with d. Groups on a side chain read outwards from the residue. No end group written: not given here. *: point of attachment. C20 diacid = O=C(O)CCCCCCCCCCCCCCCCCCC(=O)*; C18 diacid = O=C(O)CCCCCCCCCCCCCCCCC(=O)*; γGlu = O=C(O)[C@H](CCC(=O)[*:2])N[*:1]; αMeF = C[C@](N)(Cc1ccccc1)C(=O)O; AEEA = NCCOCCOCC(=O)O; Aib = CC(C)(N)C(=O)O

Legend:
[1] = target: human GLP-1 receptor (hGLP-1R) (human, UniProt P43220 24-463); assay: cell-based or functional assay
[2] = target: human glucagon receptor (hGCGR) (human, UniProt P47871 26-477); assay: cell-based or functional assay
Chain of human glucagon receptor (hGCGR) (P47871 26-477): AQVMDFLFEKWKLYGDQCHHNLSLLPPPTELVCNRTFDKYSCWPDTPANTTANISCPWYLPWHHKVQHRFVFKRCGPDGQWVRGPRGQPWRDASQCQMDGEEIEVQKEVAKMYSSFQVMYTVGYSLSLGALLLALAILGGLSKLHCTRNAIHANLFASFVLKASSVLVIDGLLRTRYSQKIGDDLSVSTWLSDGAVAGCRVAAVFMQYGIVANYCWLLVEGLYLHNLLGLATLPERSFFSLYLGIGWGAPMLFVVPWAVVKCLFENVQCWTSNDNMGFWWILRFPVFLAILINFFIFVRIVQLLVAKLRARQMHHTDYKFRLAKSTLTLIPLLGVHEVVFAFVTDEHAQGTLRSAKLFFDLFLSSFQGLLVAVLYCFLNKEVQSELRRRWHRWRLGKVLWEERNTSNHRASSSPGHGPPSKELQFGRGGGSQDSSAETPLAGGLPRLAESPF

Binder	hGLP-1R EC50 (pM) [1] [pM]	hGluc-R EC50 (pM) [2] [pM]
H[Aib]QGTFTSDVSK[αMeF]LEAK([AEEA-AEEA-γGlu-γGlu-C18 diacid])AAREFIAWLLET-NH2 (N-terminus assumed; SMILES CC[C@H](C)[C@H](NC(=O)[C@H](Cc1ccccc1)NC(=O)[C@H](CCC(=O)O)NC(=O)[C@H](CCCNC(=N)N)NC(=O)[C@H](C)NC(=O)[C@H](C)NC(=O)[C@H](CCCCNC(=O)COCCOCCNC(=O)COCCOCCNC(=O)CC[C@H](NC(=O)CC[C@H](NC(=O)CCCCCCCCCCCCCCCCC(=O)O)C(=O)O)C(=O)O)NC(=O)[C@H](C)NC(=O)[C@H](CCC(=O)O)NC(=O)[C@H](CC(C)C)NC(=O)[C@](C)(Cc1ccccc1)NC(=O)[C@H](CCCCN)NC(=O)[C@H](CO)NC(=O)[C@@H](NC(=O)[C@H](CC(=O)O)NC(=O)[C@H](CO)NC(=O)[C@@H](NC(=O)[C@H](Cc1ccccc1)NC(=O)[C@@H](NC(=O)CNC(=O)[C@H](CCC(N)=O)NC(=O)C(C)(C)NC(=O)[C@@H](N)Cc1c[nH]cn1)[C@@H](C)O)[C@@H](C)O)C(C)C)C(=O)N[C@@H](C)C(=O)N[C@@H](Cc1c[nH]c2ccccc12)C(=O)N[C@@H](CC(C)C)C(=O)N[C@@H](CC(C)C)C(=O)N[C@@H](CCC(=O)O)C(=O)N[C@H](C(N)=O)[C@@H](C)O) [Peptide 517]	146	738
H[Aib]QGTFTSDVSK[αMeF]LDSK([γGlu-γGlu-AEEA-AEEA-γGlu-γGlu-C20 diacid])RAQDFVRWLLE[Aib]G-OH [Peptide 139]	630	984
H[Aib]QGTFTSDVSK[αMeF]LDTK([AEEA-AEEA-γGlu-C20 diacid])AARDFVQWLLE[Aib]G-NH2 (N-terminus assumed; SMILES CC(C)C[C@H](NC(=O)[C@H](Cc1c[nH]c2ccccc12)NC(=O)[C@H](CCC(N)=O)NC(=O)[C@@H](NC(=O)[C@H](Cc1ccccc1)NC(=O)[C@H](CC(=O)O)NC(=O)[C@H](CCCNC(=N)N)NC(=O)[C@H](C)NC(=O)[C@H](C)NC(=O)[C@H](CCCCNC(=O)COCCOCCNC(=O)COCCOCCNC(=O)CC[C@H](NC(=O)CCCCCCCCCCCCCCCCCCC(=O)O)C(=O)O)NC(=O)[C@@H](NC(=O)[C@H](CC(=O)O)NC(=O)[C@H](CC(C)C)NC(=O)[C@](C)(Cc1ccccc1)NC(=O)[C@H](CCCCN)NC(=O)[C@H](CO)NC(=O)[C@@H](NC(=O)[C@H](CC(=O)O)NC(=O)[C@H](CO)NC(=O)[C@@H](NC(=O)[C@H](Cc1ccccc1)NC(=O)[C@@H](NC(=O)CNC(=O)[C@H](CCC(N)=O)NC(=O)C(C)(C)NC(=O)[C@@H](N)Cc1c[nH]cn1)[C@@H](C)O)[C@@H](C)O)C(C)C)[C@@H](C)O)C(C)C)C(=O)N[C@@H](CC(C)C)C(=O)N[C@@H](CCC(=O)O)C(=O)NC(C)(C)C(=O)NCC(N)=O) [Peptide 515]	297	2660
H[Aib]QGT[αMeF]TSDVSK[αMeF]LDTK([AEEA-AEEA-γGlu-C18 diacid])RARD[αMeF]VQWLLA[Aib]G-NH2 (N-terminus assumed; SMILES CC(C)C[C@H](NC(=O)[C@H](CC(C)C)NC(=O)[C@H](Cc1c[nH]c2ccccc12)NC(=O)[C@H](CCC(N)=O)NC(=O)[C@@H](NC(=O)[C@](C)(Cc1ccccc1)NC(=O)[C@H](CC(=O)O)NC(=O)[C@H](CCCNC(=N)N)NC(=O)[C@H](C)NC(=O)[C@H](CCCNC(=N)N)NC(=O)[C@H](CCCCNC(=O)COCCOCCNC(=O)COCCOCCNC(=O)CC[C@H](NC(=O)CCCCCCCCCCCCCCCCC(=O)O)C(=O)O)NC(=O)[C@@H](NC(=O)[C@H](CC(=O)O)NC(=O)[C@H](CC(C)C)NC(=O)[C@](C)(Cc1ccccc1)NC(=O)[C@H](CCCCN)NC(=O)[C@H](CO)NC(=O)[C@@H](NC(=O)[C@H](CC(=O)O)NC(=O)[C@H](CO)NC(=O)[C@@H](NC(=O)[C@](C)(Cc1ccccc1)NC(=O)[C@@H](NC(=O)CNC(=O)[C@H](CCC(N)=O)NC(=O)C(C)(C)NC(=O)[C@@H](N)Cc1c[nH]cn1)[C@@H](C)O)[C@@H](C)O)C(C)C)[C@@H](C)O)C(C)C)C(=O)N[C@@H](C)C(=O)NC(C)(C)C(=O)NCC(N)=O) [Peptide 513]	93.8	1340
H[Aib]QGTFTSDVSK[αMeF]LDSK([γGlu-γGlu-AEEA-AEEA-γGlu-γGlu-C18 diacid])RAQDFVRWLLEG[Aib]-OH (N-terminus assumed; SMILES CC(C)C[C@H](NC(=O)[C@H](CC(C)C)NC(=O)[C@H](Cc1c[nH]c2ccccc12)NC(=O)[C@H](CCCNC(=N)N)NC(=O)[C@@H](NC(=O)[C@H](Cc1ccccc1)NC(=O)[C@H](CC(=O)O)NC(=O)[C@H](CCC(N)=O)NC(=O)[C@H](C)NC(=O)[C@H](CCCNC(=N)N)NC(=O)[C@H](CCCCNC(=O)CC[C@H](NC(=O)CC[C@H](NC(=O)COCCOCCNC(=O)COCCOCCNC(=O)CC[C@H](NC(=O)CC[C@H](NC(=O)CCCCCCCCCCCCCCCCC(=O)O)C(=O)O)C(=O)O)C(=O)O)C(=O)O)NC(=O)[C@H](CO)NC(=O)[C@H](CC(=O)O)NC(=O)[C@H](CC(C)C)NC(=O)[C@](C)(Cc1ccccc1)NC(=O)[C@H](CCCCN)NC(=O)[C@H](CO)NC(=O)[C@@H](NC(=O)[C@H](CC(=O)O)NC(=O)[C@H](CO)NC(=O)[C@@H](NC(=O)[C@H](Cc1ccccc1)NC(=O)[C@@H](NC(=O)CNC(=O)[C@H](CCC(N)=O)NC(=O)C(C)(C)NC(=O)[C@@H](N)Cc1c[nH]cn1)[C@@H](C)O)[C@@H](C)O)C(C)C)C(C)C)C(=O)N[C@@H](CCC(=O)O)C(=O)NCC(=O)NC(C)(C)C(=O)O) [Peptide 137]	143	268
H[Aib]QGTFTSDVSK[αMeF]LDSK([γGlu-γGlu-AEEA-AEEA-γGlu-γGlu-C18 diacid])RARDFVRWLLE[Aib]G-OH (N-terminus assumed; SMILES CC(C)C[C@H](NC(=O)[C@H](Cc1c[nH]c2ccccc12)NC(=O)[C@H](CCCNC(=N)N)NC(=O)[C@@H](NC(=O)[C@H](Cc1ccccc1)NC(=O)[C@H](CC(=O)O)NC(=O)[C@H](CCCNC(=N)N)NC(=O)[C@H](C)NC(=O)[C@H](CCCNC(=N)N)NC(=O)[C@H](CCCCNC(=O)CC[C@H](NC(=O)CC[C@H](NC(=O)COCCOCCNC(=O)COCCOCCNC(=O)CC[C@H](NC(=O)CC[C@H](NC(=O)CCCCCCCCCCCCCCCCC(=O)O)C(=O)O)C(=O)O)C(=O)O)C(=O)O)NC(=O)[C@H](CO)NC(=O)[C@H](CC(=O)O)NC(=O)[C@H](CC(C)C)NC(=O)[C@](C)(Cc1ccccc1)NC(=O)[C@H](CCCCN)NC(=O)[C@H](CO)NC(=O)[C@@H](NC(=O)[C@H](CC(=O)O)NC(=O)[C@H](CO)NC(=O)[C@@H](NC(=O)[C@H](Cc1ccccc1)NC(=O)[C@@H](NC(=O)CNC(=O)[C@H](CCC(N)=O)NC(=O)C(C)(C)NC(=O)[C@@H](N)Cc1c[nH]cn1)[C@@H](C)O)[C@@H](C)O)C(C)C)C(C)C)C(=O)N[C@@H](CC(C)C)C(=O)N[C@@H](CCC(=O)O)C(=O)NC(C)(C)C(=O)NCC(=O)O) [Peptide 136]	45.2	509
H[Aib]QGTFTSDVSK[αMeF]LDTK([AEEA-AEEA-γGlu-C18 diacid])AARDFVQWLLE[Aib]G-NH2 (N-terminus assumed; SMILES CC(C)C[C@H](NC(=O)[C@H](Cc1c[nH]c2ccccc12)NC(=O)[C@H](CCC(N)=O)NC(=O)[C@@H](NC(=O)[C@H](Cc1ccccc1)NC(=O)[C@H](CC(=O)O)NC(=O)[C@H](CCCNC(=N)N)NC(=O)[C@H](C)NC(=O)[C@H](C)NC(=O)[C@H](CCCCNC(=O)COCCOCCNC(=O)COCCOCCNC(=O)CC[C@H](NC(=O)CCCCCCCCCCCCCCCCC(=O)O)C(=O)O)NC(=O)[C@@H](NC(=O)[C@H](CC(=O)O)NC(=O)[C@H](CC(C)C)NC(=O)[C@](C)(Cc1ccccc1)NC(=O)[C@H](CCCCN)NC(=O)[C@H](CO)NC(=O)[C@@H](NC(=O)[C@H](CC(=O)O)NC(=O)[C@H](CO)NC(=O)[C@@H](NC(=O)[C@H](Cc1ccccc1)NC(=O)[C@@H](NC(=O)CNC(=O)[C@H](CCC(N)=O)NC(=O)C(C)(C)NC(=O)[C@@H](N)Cc1c[nH]cn1)[C@@H](C)O)[C@@H](C)O)C(C)C)[C@@H](C)O)C(C)C)C(=O)N[C@@H](CC(C)C)C(=O)N[C@@H](CCC(=O)O)C(=O)NC(C)(C)C(=O)NCC(N)=O) [Peptide 514]	76.7	1370
H[Aib]QGTFTSDVSK[αMeF]LDSK([γGlu-γGlu-AEEA-AEEA-γGlu-γGlu-C18 diacid])RAQDFVRWLLE[Aib]G-OH (N-terminus assumed; SMILES CC(C)C[C@H](NC(=O)[C@H](Cc1c[nH]c2ccccc12)NC(=O)[C@H](CCCNC(=N)N)NC(=O)[C@@H](NC(=O)[C@H](Cc1ccccc1)NC(=O)[C@H](CC(=O)O)NC(=O)[C@H](CCC(N)=O)NC(=O)[C@H](C)NC(=O)[C@H](CCCNC(=N)N)NC(=O)[C@H](CCCCNC(=O)CC[C@H](NC(=O)CC[C@H](NC(=O)COCCOCCNC(=O)COCCOCCNC(=O)CC[C@H](NC(=O)CC[C@H](NC(=O)CCCCCCCCCCCCCCCCC(=O)O)C(=O)O)C(=O)O)C(=O)O)C(=O)O)NC(=O)[C@H](CO)NC(=O)[C@H](CC(=O)O)NC(=O)[C@H](CC(C)C)NC(=O)[C@](C)(Cc1ccccc1)NC(=O)[C@H](CCCCN)NC(=O)[C@H](CO)NC(=O)[C@@H](NC(=O)[C@H](CC(=O)O)NC(=O)[C@H](CO)NC(=O)[C@@H](NC(=O)[C@H](Cc1ccccc1)NC(=O)[C@@H](NC(=O)CNC(=O)[C@H](CCC(N)=O)NC(=O)C(C)(C)NC(=O)[C@@H](N)Cc1c[nH]cn1)[C@@H](C)O)[C@@H](C)O)C(C)C)C(C)C)C(=O)N[C@@H](CC(C)C)C(=O)N[C@@H](CCC(=O)O)C(=O)NC(C)(C)C(=O)NCC(=O)O) [Peptide 138]	104	184
